US20020115184

Experiments:
B. subtilis YqxM protein = molecular target: T1, B. subtilis YqxM protein
T1 chain: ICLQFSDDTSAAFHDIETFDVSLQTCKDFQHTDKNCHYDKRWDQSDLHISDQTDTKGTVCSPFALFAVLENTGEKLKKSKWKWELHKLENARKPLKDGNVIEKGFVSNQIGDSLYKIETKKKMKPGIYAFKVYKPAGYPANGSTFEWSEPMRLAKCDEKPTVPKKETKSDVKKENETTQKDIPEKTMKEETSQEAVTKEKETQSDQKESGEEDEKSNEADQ

[1] = molecular target: T2, immature TasA protein (pro-TasA), 34 kDa
T2 chain: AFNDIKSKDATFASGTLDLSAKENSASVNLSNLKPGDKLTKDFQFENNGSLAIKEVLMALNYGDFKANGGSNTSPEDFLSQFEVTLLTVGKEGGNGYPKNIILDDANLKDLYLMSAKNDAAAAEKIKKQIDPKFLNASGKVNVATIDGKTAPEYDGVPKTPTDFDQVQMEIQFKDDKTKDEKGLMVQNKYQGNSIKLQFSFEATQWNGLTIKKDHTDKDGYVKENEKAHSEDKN

B1: B. subtilis SipW protein (signal peptidase) (protein)
chain: MKLISNILYVIIFTLIIVLTLVVISTRSSGGEPAVFGYTLKSVLSGSMEPEFNTGSLILVKEITDVKELQKGDVITFMQDANTAVTHRIVDITKQGDHLLFKTKGDNNAAADSAPVSDENVRAQYTGFQLPYAGYMLHFASQPIGTAVLLIVPGVMLLVYAFVTISSAIREIERKTKALETDTKDSTMST
For B1, the “Western blot of YqxM in concentrated E. coli culture supernatants” value (B. subtilis YqxM protein) was “when both YqxM and SipW were produced, YqxM was abundant in the culture supernatant and migrated as a smaller 31 kD species”, the “YqxM associated with the spore, with sipW deleted or under pSpac control” value (B. subtilis YqxM protein) was “deletion of sipW resulted in no measurable amount of YqxM associated with the spore” and the “Western blot for mature TasA in a strain where the neo promoter drives sipW and TasA and YqxM is disrupted” value [1] was “A band corresponding to mature TasA was detected in extracts of spores and in both the culture supernatants and lysates of sporangia and vegetative cells. No protein of larger molecular weight that could correspond to immature TasA was detected”. The “Western blot of TasA size in sipW deletion strains (34 kDa immature against 31 kDa mature)” value [1] was “a 34 kDa band was detected in both sporangial lysates and vegetative cells”.
